Laboratory results published in patent US20210388081A1 (Memorial Sloan Kettering, published 2021).

T1: FcRL2, overexpressed on 3T3 cells (UniProt Q96LA5 20-508, limits assumed)
T1 construct: whole, on cells
T1 sequence (looked up): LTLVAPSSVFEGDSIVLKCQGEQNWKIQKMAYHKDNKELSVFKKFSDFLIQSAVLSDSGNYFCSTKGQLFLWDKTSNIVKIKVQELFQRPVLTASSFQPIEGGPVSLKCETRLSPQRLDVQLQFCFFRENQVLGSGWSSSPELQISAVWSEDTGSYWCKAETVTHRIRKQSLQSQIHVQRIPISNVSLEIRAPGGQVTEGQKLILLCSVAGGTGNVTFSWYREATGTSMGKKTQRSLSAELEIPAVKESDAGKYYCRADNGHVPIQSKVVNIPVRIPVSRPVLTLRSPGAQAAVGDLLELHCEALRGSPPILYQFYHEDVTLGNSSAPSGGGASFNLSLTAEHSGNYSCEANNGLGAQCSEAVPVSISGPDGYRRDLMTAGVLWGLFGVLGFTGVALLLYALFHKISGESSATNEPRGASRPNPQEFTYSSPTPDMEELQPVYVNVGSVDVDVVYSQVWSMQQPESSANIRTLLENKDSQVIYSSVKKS

T2: FcRL4, overexpressed on 3T3 cells (UniProt Q96PJ5 20-515, limits assumed)
T2 construct: whole, on cells
T2 sequence (looked up): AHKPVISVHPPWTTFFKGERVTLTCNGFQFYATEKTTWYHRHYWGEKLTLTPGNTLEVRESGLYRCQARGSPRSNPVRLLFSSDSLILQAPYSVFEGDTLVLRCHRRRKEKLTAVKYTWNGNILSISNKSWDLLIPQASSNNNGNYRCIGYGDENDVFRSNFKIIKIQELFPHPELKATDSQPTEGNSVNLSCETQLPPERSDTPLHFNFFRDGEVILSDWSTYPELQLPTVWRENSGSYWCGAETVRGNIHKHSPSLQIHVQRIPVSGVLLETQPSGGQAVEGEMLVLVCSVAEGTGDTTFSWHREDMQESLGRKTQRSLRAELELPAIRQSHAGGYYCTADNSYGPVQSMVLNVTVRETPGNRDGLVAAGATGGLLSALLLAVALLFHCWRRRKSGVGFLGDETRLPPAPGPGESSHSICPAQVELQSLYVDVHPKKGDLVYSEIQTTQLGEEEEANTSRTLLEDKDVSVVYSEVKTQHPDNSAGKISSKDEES

T3: FcRL6, overexpressed on 3T3 cells (UniProt Q6DN72 20-434, limits assumed)
T3 construct: whole, on cells
T3 sequence (looked up): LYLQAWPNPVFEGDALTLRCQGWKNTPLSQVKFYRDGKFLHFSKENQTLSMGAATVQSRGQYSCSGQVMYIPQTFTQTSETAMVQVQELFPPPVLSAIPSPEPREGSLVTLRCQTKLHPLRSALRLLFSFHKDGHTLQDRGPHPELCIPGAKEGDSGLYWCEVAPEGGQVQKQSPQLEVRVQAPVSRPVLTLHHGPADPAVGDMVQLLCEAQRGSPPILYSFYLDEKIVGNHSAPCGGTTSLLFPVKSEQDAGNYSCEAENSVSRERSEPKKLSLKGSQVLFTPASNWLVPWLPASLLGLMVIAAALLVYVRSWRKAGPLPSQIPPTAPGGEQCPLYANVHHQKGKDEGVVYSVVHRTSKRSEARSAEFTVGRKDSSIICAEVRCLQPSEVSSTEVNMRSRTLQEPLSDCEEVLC

T4: Fc Receptor-like 5 (FcRL5), full length, overexpressed on 3T3 or Raji cells (human, UniProt Q96RD9 16-977)
T4 construct: also called 3T3-FcRL5
T4 sequence: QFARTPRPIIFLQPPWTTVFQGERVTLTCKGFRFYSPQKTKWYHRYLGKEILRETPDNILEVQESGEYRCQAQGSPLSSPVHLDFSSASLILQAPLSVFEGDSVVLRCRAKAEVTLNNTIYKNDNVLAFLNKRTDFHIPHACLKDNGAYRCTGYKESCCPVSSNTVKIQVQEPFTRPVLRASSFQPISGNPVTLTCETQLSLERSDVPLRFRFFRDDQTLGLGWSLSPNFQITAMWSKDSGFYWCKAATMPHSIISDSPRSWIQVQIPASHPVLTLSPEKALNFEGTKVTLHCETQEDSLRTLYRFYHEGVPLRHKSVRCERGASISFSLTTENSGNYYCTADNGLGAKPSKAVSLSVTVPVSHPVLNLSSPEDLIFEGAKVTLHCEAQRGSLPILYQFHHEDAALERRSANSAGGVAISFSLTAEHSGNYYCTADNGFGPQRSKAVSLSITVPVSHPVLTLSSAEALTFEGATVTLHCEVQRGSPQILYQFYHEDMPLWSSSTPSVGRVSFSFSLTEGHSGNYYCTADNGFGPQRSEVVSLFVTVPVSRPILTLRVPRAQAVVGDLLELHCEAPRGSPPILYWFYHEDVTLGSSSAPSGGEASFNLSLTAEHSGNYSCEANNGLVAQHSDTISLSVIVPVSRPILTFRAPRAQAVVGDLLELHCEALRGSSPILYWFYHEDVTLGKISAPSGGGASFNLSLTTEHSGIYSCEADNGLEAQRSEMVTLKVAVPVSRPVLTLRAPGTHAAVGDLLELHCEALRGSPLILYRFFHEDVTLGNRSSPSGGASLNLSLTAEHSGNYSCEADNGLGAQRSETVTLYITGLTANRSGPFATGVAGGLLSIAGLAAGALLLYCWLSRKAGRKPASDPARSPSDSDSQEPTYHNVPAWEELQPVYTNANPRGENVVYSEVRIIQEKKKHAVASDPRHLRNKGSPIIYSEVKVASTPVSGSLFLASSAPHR


Experiments:
[1] = target: SLAMF9 protein (UniProt Q96A28 19-236, limits assumed); test: phage clone on SLAMF9 protein
[2] = target: T1, FcRL2, overexpressed on 3T3 cells; test: phage clone on 3T3-FcRL2 cells
[3] = target: T2, FcRL4, overexpressed on 3T3 cells; test: phage clone on 3T3-FcRL4 cells
[4] = target: T3, FcRL6, overexpressed on 3T3 cells; test: phage clone on 3T3-FcRL6 cells
[5] = target: T4, Fc Receptor-like 5 (FcRL5), full …; test: phage clone screening on cells
Outline: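 Cell-surface binding was read by flow cytometry using anti-M13 coat protein mAb and PE-labelled anti-mouse Ig. Selected scFv phage were screened on FcRL5-overexpressing 3T3 cells, with 3T3 lines bearing FcRL1, 2, 3, 4 or 6 as negative controls.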

SLAMF9 protein, sequence (Q96A28 19-236 limits assumed): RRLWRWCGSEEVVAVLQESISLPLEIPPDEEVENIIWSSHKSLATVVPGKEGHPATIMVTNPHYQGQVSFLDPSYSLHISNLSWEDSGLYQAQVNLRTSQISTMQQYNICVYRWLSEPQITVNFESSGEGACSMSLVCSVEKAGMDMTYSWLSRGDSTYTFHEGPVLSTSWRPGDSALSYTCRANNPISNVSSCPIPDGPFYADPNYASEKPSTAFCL

| Binder | binding result [1] | binding result [2] | binding result [3] | binding result [4] | binding result [5] |
| --- | --- | --- | --- | --- | --- |
| ET200-115 (scFv, screened as phage clone; entry is VL-linker-VH-His tag-HA tag) scFv: QSVLTQPPSVSGAPGQRVTISCTGSSSNIGARYDVHWYQQLPGTAPRLLISANYDRPSGVPDRFSGSKSGTSASLAITGLQAEDEADYYCQSYDSSVSAWVFGGGTKVTVLGSRGGGGSGGGGSGGGGSLEMAEVQLVQSGAEVKEPGASVRISCQASGYNFISYYMHWVRQAPGQGLEWMGTINPGSGETDYSQKLQGRVTMTRDPSTGTFDMGLSSLTSGDTAVYYCATGLIRGASDAFNIWGRGTMVTVSSTSGQAGQHHHHHHGAYPYDVPDYAS | no binding | no binding | no binding | no binding | binds |
| ET200-118 (scFv, screened as phage clone; entry is VL-linker-VH-His tag-HA tag) scFv: QAVLTQPASVSGSPGQSITISCTGTSSDVGGYNYVSWYQQHPGKAPKLMIYEVSNRPSGVSNRFSGSKSGNTASLTISGLQAEDEADYYCSSYTSSSTPYVFGAGTKVTVLGSRGGGGSGGGGSGGGGSLEMAEVQLVESGGGLVQPGRSLRLSCAASGFTFDDYAMHWVRQAPGKGLEWVSGISWNSGSIGYADSVKGRFTISRDNAKNSLYLQMNSLRAEDTALYYCAKARWTAVASDHHFDYWGQGTLVTVSSTSGQAGQHHHHHHGAYPYDVPDYAS | no binding | no binding | no binding | no binding | binds |
| ET200-008 (scFv, screened as phage clone; entry is VL-linker-VH-His tag-HA tag) scFv: QSALTQPASVSGSPGQSITISCTGTSSDVGGYNYVSWYQQHPGKAPKLMIYDVSNRPSGVSNRFSGSKSGNTASLTISGLQAEDEADYYCSSYTSSSTSKVFGGGTKLTVLGSRGGGGSGGGGSGGGGSLEMAEVQLVESGGGVVRPGGSLRLSCAASGFTFGDYGMSWVRQAPGKGLEWVSGINWNGGSTGYADSVKGRFTISRDNAKNSLYLQMNSLRAEDTAVYYCARSKYNFHVYYDYWGQGTLVTVSSTSGQAGQHHHHHHGAYPYDVPDYAS | no binding | no binding | no binding | no binding | binds |
| ET200-112 (scFv, screened as phage clone; entry is VL-linker-VH-His tag-HA tag) scFv: QAVLTQPPSASGTPGQRVTISCSGSSSNIGSNTVNWYQQLPGTAPKLLMYSNDQRPSGVPDRFSGSKSGTSASLAISGLQSEDEADYYCAAWDDSLNGYVFAAGTQLTVLSSRGGGGSGGGGSGGGGSLEMAQVQLQQWGAGLLKPSETLSLTCAVYGGSFSGYYWSWIRQPPGKGLEWIGEINHSGSTNYNPSLKSRVTISVDTSKNQFSLKLSSVTAADTAVYYCAREGLDAFDIWGQGTMVTVSSTSGQAGQHHHHHHGAYPYDVPDYAS | no binding | no binding | no binding | no binding | binds |
| ET200-116 (scFv, screened as phage clone; entry is VL-linker-VH-His tag-HA tag) scFv: QPVLTQPPSVSVSPGQTAAIPCSGDKLGDKFASWYQQKPGQSPVLVIYQDTKRPSGIPERFSGSNSGNTATLTISGTQAMDEADYYCQTWASGIVVFGGGTKLTVLGSRGGGGSGGGGSGGGGSLEMAQVQLQQSGPGLVKPSQTLSLTCAISGDSVSSNSAAWNWIRQSPSRGLEWLGRTYYRSKWYNDYAVSVKSRITINPDTSKNQFSLQLNSVTPEDTAVYYCARERSGWKGFDYWGQGTLVTVSSTSGQAGQHHHHHHGAYPYDVPDYAS | no binding | no binding | no binding | no binding | binds |
| ET200-113 (scFv, screened as phage clone; entry is VL-linker-VH-His tag-HA tag) scFv: QSVVTQPPSVSAAPGQKVTISCSGSSSNIGNNYVSWYQQLPGTAPKLLIYDNNKRPSGIPDRFSGSKSGTSATLGITGLQTGDEADYYCGTWDSSLSAAYVFGTGTKVTVLGSRGGGGSGGGGSGGGGSLEMAQVQLVQSGAEVKKPGASVKVSCKASGYSFTSYTISWVRQAPGQGLEWMGWVSTYNGLRNYAQNLQGRVTMTTDTLTTTAYMELRSLRSDDTAVYYCVREGSPDYGDFAAFDYWGQGTLVTVSSTSGQAGQHHHHHHGAYPYDVPDYAS | no binding | no binding | no binding | no binding | binds |
| ET200-121 (scFv, screened as phage clone; entry is VL-linker-VH-His tag-HA tag) scFv: QSVLTQPPSVSGAPGQRVTVSCTGSRSNIGAGYDVHWYQQLPGTAPKLLIYGNSNRPPGVPDRFSGSKSGTSASLVITGLQAEDAADYYCQSYDNTVRESPYVFGTGTKVTVLGSRGGGGSGGGGSGGGGSLEMAEVQLVQSGAEVKKPGASVKVSCKVSGYTLTELSMHWVRQAPGKGLEWMGGFDPEDGETIYAQKFQGRVTMTEDTSTDTAYMELSSLRSEDTAVYYCATESNLVSRHYYYYGMDVWGQGTTVTVSSTSGQAGQHHHHHHGAYPYDVPDYAS | no binding | no binding | no binding | no binding | binds |
| ET200-123 (scFv, screened as phage clone; entry is VL-linker-VH-His tag-HA tag) scFv: QAVLTQPPSASGTPGQRVTISCSGSSSNIGSNTVNWYQQLPGTAPKLLMYNNDQRPSGVPDRFSGSKSGTSASLAISGLQSEDEADYYCAAWDDSLNGYVFGPGTKVTVLGSRGGGGSGGGGSGGGGSLEMAQVQLVESGAEVKKPGASVKVSCKASGYTFTSYGISWVRQAPGQGLEWMGWISAYNGNTNYAQKLQGRVTMTTDTSTSTAYMELRSLRSDDTAVYYCARDLSRGANPHYYYYYGMDVWGQGTTVTVSSTSGQAGQHHHHHHGAYPYDVPDYAS | no binding | no binding | no binding | no binding | binds |
